Numbering of substitutions follows the chain as printed.
B1: PD-L1 binding agent 10 (antibody, V domains shown)
VH: QVQLVQSGAEVKKPGASVKVSCKASGYTFTGYYMHWVRQAPGQGLEWIGWMSLNSGLTGYAQKFQGRVTMTRDTSTSTVYMELSSLRSEDTAVYYCARDRGWFDPWGQGTLVTVSS
VL: DIQMTQSPSSLSASVGDRVTITCRASQSISSWLAWYQQKPGKAPKLLIYAASTLESGVPSRFSGSGSGTDFTLTISSLQPEDFATYYCQQSYTTPYSFGGGTKVEIK
B2: PD-L1 binding agent 21 (antibody, V domains shown)
VH: QVQLVQSGAEVKKPGASVKVSCKASGYTFTSHYMHWVRQAPGQGLEWMGWMNPNSGHTGNAQKFQGRVTMTRDTSTSTVYMELSSLRSEDTAVYYCARGNWVDAFDIWGQGTMVTVSS
VL: B1 VL with S28G, S30R, S31N, W32D, E55Q, T93S, Y96L, S97T
B3: 69 (antibody, V domains shown)
VH: QVQLVQSGAEVKKPGASVKVSCKASGYTFTSYYMHWVRQAPGQGLEWMGWINPNSGNTGYAQKFQGRVTMTRDTSTSTVYMELSSLRSEDTAVYYCARDDWGGDWFDYWGQGTLVTVSS
VL: DIQMTQSPSSLSASVGDRVTITCQASQDISNHLNWYQQKPGKAPKLLIYGASNLQRGVPSRFSGSGSGTDFTLTISSLQPEDFATYYCQQSYSTPITFGQGTRLEIK
B4: 70 (antibody, V domains shown)
VH: QVQLVQSGAEVKKPGASVKVSCKASGYTFTDHYLHWVRQAPGQGLEWMGWINPNIGNTGYAQKFQGRVTMTRDTSTSTVYMELSSLRSEDTAVYYCAREPLQLGGFDYWGQGTLVTVSS
VL: B1 VL with Q27E, T53S, E55Q, T93S, Y96L, S97T, G100Q, V104L
B5: 5 (antibody, V domains shown)
VH: QVQLVQSGAEVKKPGASVKVSCKASGYTFNRFMHWVRQAPGQGLEWMGWMSLNSGLTGYAQKFQGRVTMTRDTSTSTVYMELSSLRSEDTAVYYCTRGTYNDAFDIWGQGTLVTVSS
VL: B1 VL with S28T, S31N, W32Y, A34N, T53S, E55Q, Y96I, S97T
B6: 6 (antibody, V domains shown)
VH: QVQLVQSGAEVKKPGASVKVSCKASGYTFTSYYIHWVRQAPGQGLEWMGWMKPSSGTTGYAQKFQGRVTMTRDTSTSTVYMELSSLRSEDTAVYYCAREQWLVNDAFDIWGQGTLVTVSS
VL: EIVMTQSPATLSVSPGERATLSCRASQSVDRNYVTWYQQKPGQAPRLLIYGASTRATGIPARFSGSGSGTEFTLTISSLQSEDFAVYYCQQSYTTPYTFGQGTKVEIK

Experiments:
[1] = target: PD-L1 on CHO-K1/PD-L1/alphaAPC stimulator cells (UniProt Q9NZQ7 19-290, limits assumed); assay: cell-based or functional assay
human PD-L1 (hPD-L1) = target: T1, human PD-L1 (hPD-L1) (human, UniProt Q9NZQ7 19-290); assay: flow cytometry on JIMT-1 cells expressing endogenous human PD-L1; anti-human IgG Fc secondary; geometric MFI
T1 construct: Endogenous hPD-L1 on JIMT1 (JIMT-1) cells; also called programmed death-ligand 1; CD274
Protocol: Binding of the binding agents of an embodiment of the invention to human PD-L1 (hPD-L1) on cell surfaces was assessed by incubating the binding agents with JIMT1 cells that express endogenous hPD-L1. Briefly, the binding agents were diluted serially in FACS buffer (PBS+1% FBS+5 mM EDTA, pH 7.4) at 4° C. Diluted binding agents were applied to JIMT1 cells (˜1×10⁵-2×10⁵ per well) and incubated at 4° C. […] After unbound secondary antibody was washed out, cells were resuspended in FACS buffer plus 2% formaldehyde and analyzed by flow cytometry. The intensity of fluorescence, expressed as geometric mean fluorescence intensity, was used to determine anti-PDL1 binding agent binding to hPD-L1 on cell surface.

T1 sequence (Q9NZQ7 19-290 limits assumed): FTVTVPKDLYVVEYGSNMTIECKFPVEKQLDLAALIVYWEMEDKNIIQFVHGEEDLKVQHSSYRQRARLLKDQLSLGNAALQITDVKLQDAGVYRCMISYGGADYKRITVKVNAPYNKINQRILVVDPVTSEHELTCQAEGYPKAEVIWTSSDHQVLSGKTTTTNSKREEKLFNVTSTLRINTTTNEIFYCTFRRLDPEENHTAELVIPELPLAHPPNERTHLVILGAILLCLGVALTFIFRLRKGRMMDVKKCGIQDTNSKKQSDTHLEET
PD-L1 on CHO-K1/PD-L1/alphaAPC stimulator cells, sequence (Q9NZQ7 19-290 limits assumed): as above

Row | Binder | EC50 (nM), PD-L1/PD-1 blockade, luciferase reporter cells [1] [nM] | EC50 (ng/ml), PD-L1/PD-1 blockade, luciferase reporter cells [1] [ng/mL] | binding result (human PD-L1 (hPD-L1))
1 | B1 | 2.02 | 291 | –
2 | B2 | 0.9 | 129 | –
3 | B3 | – | – | binds
4 | B4 | – | – | binds
5 | B5 | – | – | binds
6 | B6 | – | – | binds

— patent US20230086603A1 (BOLT BIOTHERAPEUTICS, published 2023)
